According to US20050164933A1:
No end group written: not given here. *: point of attachment. Biotin = O=C1N[C@H]2[C@H](CS[C@H]2CCCCC(=O)*)N1

How the values were obtained:
Test in all cases: G3 assay titration, immobilised GST-PDZ
[1] = target: T1, GST-SITAC 18 PDZ domain 1 fusion protein (human), Q9H190
T1 chain: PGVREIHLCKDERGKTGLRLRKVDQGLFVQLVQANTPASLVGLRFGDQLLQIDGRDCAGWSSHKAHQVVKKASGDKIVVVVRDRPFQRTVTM

[2] = target: T2, GST-KIAA1284 PDZ domain 1 fusion protein (human), Q9ULD6
T2 chain: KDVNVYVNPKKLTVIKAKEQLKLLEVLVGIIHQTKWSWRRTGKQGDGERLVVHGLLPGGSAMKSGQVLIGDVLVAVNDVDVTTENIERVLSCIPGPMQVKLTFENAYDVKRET

[3] = target: T3, GST-TIP1 PDZ domain 1 fusion protein (human), O14907
T3 chain: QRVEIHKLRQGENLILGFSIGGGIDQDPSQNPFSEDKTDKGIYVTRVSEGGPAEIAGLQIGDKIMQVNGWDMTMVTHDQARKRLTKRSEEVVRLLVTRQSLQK

[4] = target: T4, GST-MUPP1 PDZ domain 3 fusion protein (human), O75970
T4 chain: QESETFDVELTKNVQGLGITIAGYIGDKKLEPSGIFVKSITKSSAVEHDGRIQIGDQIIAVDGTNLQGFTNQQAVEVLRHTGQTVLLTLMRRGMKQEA

[5] = target: T5, GST-RIM2 PDZ domain 1 fusion protein (human)
T5 chain: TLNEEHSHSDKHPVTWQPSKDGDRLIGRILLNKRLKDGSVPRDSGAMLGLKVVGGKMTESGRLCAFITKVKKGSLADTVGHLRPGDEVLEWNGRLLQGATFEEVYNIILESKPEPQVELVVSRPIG

[6] = target: T6, GST-MINT1 PDZ domain 1 fusion protein (human)
T6 chain: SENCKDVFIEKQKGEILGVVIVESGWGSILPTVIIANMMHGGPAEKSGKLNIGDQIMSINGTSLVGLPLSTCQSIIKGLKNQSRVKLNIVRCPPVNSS

[7] = target: T7, GST-SITAC 18 PDZ domain 2 fusion protein (human), Q9H190
T7 chain: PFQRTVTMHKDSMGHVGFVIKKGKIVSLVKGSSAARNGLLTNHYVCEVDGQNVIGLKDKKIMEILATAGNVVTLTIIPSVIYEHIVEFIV

[8] = target: T8, GST-LIM mystique PDZ domain 1 fusion protein (human), Q96JY6
T8 chain: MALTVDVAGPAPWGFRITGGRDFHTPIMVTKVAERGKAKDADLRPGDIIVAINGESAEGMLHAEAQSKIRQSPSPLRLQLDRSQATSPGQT

[9] = target: T9, GST-Syntrophin 1 alpha PDZ domain 1 fusion protein (human), Q13424
T9 chain: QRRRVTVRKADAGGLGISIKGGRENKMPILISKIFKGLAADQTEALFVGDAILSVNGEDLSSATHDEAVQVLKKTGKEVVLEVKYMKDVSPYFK

[10] = target: T10, GST-ZO-1 PDZ domain 2 fusion protein (human)
T10 chain: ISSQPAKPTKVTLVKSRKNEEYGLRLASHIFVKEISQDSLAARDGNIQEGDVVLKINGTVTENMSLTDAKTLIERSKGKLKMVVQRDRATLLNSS

[11] = target: T11, GST-MINT1 PDZ domains 1,2 fusion protein (human)
T11 chain: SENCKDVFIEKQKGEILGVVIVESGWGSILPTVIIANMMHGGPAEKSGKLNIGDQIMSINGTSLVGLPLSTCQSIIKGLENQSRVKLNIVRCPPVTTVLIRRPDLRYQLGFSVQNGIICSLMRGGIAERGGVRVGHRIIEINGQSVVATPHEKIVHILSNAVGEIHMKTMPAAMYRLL

[12] = target: T12, GST-MINT1 PDZ domain 2 fusion protein (human)
T12 chain: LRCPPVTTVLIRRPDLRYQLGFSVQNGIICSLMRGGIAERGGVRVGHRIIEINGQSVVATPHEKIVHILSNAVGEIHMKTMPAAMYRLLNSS

[13] = target: GST-PAR3 PDZ domain 3 fusion protein (human), Q8TEW0
[14] = target: GST-PAR3L PDZ domain 3 fusion protein (human), Q8TEW8
[15] = target: T13, GST-MAST2 PDZ domain 1 fusion protein (human), Q6P0Q8
T13 chain: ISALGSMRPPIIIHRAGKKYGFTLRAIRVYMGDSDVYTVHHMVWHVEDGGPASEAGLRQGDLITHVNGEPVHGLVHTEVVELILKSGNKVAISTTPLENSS

[16] = target: T14, GST-INADL PDZ domain 3 fusion protein (human), Q8NI35
T14 chain: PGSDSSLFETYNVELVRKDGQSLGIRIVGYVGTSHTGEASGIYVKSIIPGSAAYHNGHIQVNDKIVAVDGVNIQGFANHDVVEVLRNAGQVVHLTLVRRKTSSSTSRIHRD

Sequence of GST-PAR3L PDZ domain 3 fusion protein (human), Q8TEW8 (Q8TEW8 other isoform, or with tags, fused parts or gaps): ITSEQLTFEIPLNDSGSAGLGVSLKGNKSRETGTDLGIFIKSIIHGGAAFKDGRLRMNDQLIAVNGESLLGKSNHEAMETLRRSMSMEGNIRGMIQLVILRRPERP
Sequence of GST-PAR3 PDZ domain 3 fusion protein (human), Q8TEW0 (Q8TEW0 other isoform, or with tags, fused parts or gaps): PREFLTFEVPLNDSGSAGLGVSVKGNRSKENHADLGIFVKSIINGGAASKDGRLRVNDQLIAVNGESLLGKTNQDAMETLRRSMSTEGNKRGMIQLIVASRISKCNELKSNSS

Binder: YGRKKRRQRRRSTNSVRLML (not fully specified)
- EC50 [1]: < 1000 nM
- ODmax (450 nm) [1]: 1.7 OD 450 nm
- ODmax (450 nm) [2]: 0.63 OD 450 nm
- EC50 [3]: < 1000 nM
- ODmax (450 nm) [3]: 1.82 OD 450 nm
- EC50 [4]: 290 nM
- ODmax (450 nm) [4]: 2.06 OD 450 nm
- EC50 [5]: 47 nM
- ODmax (450 nm) [5]: 2.1 OD 450 nm
- ODmax (450 nm) [6]: 0.33 OD 450 nm
- EC50 [7]: 90 nM
- ODmax (450 nm) [7]: 1.95 OD 450 nm
- EC50 [8]: 90 nM
- ODmax (450 nm) [8]: 2.1 OD 450 nm
- EC50 [9]: 160 nM
- ODmax (450 nm) [9]: 2.05 OD 450 nm
- EC50 [10]: 33 nM
- ODmax (450 nm) [10]: 2.2 OD 450 nm
- EC50 [11]: 180 nM
- ODmax (450 nm) [11]: 1.9 OD 450 nm
- EC50 [12]: < 2000 nM
- ODmax (450 nm) [12]: 0.76 OD 450 nm
- EC50 [13]: 18 nM
- ODmax (450 nm) [13]: 2.5 OD 450 nm
- EC50 [14]: 100 nM
- ODmax (450 nm) [14]: 1.97 OD 450 nm
- EC50 [15]: 110 nM
- ODmax (450 nm) [15]: 2.1 OD 450 nm
- EC50 [16]: 120 nM
- ODmax (450 nm) [16]: 1.9 OD 450 nm

Binder: Biotin-YGRKKRRQRRREKHFRETEV [Peptide #AA353 (biotin-…)]
- EC50 [3]: < 2 nM
- ODmax (450 nm) [3]: 3 OD 450 nm

Binder: Biotin-YGRKKRRQRRRARGDRYRIV [Peptide #1845 (biotin-…)]
- EC50 [10]: < 100 nM
- ODmax (450 nm) [10]: 2.3 OD 450 nm
- EC50 [16]: < 100 nM
- ODmax (450 nm) [16]: 2.2 OD 450 nm

Binder: Biotin-YGRKKRRQRRRARGDRKIRV [Peptide #1836 (biotin-…)]
- EC50 [10]: < 10 nM
- ODmax (450 nm) [10]: 2.6 OD 450 nm
- ODmax (450 nm) [16]: 0.3 OD 450 nm

Binder: Biotin-YGRKKRRQRRRSRTDRKYWA [Peptide #1832 (biotin-…)]
- EC50 [10]: < 20 nM
- ODmax (450 nm) [10]: 2.1 OD 450 nm
- EC50 [16]: 200 nM
- ODmax (450 nm) [16]: 0.6 OD 450 nm

Binder: Biotin-YGRKKRRQRRRARGTRLVWV [Peptide #1844 (biotin-…)]
- EC50 [10]: < 20 nM
- ODmax (450 nm) [10]: 2.6 OD 450 nm
- EC50 [16]: < 20 nM
- ODmax (450 nm) [16]: 2.4 OD 450 nm

Binder: Biotin-YGRKKRRQRRRARGDRKYIV [Peptide #1838 (biotin-…)]
- EC50 [10]: < 100 nM
- ODmax (450 nm) [10]: 2.6 OD 450 nm
- EC50 [16]: < 100 nM
- ODmax (450 nm) [16]: 2.6 OD 450 nm

Binder: Biotin-YGRKKRRQRRRARGDRLVSL [Peptide #1843 (biotin-…)]
- EC50 [10]: 17 nM
- ODmax (450 nm) [10]: 2.2 OD 450 nm
- EC50 [16]: < 2000 nM
- ODmax (450 nm) [16]: 1.2 OD 450 nm

Binder: Biotin-YGRKKRRQRRRQDERRLIVL [Peptide #1842 (biotin-…)]
- EC50 [10]: 35 nM
- ODmax (450 nm) [10]: 2.3 OD 450 nm
- EC50 [16]: < 1000 nM
- ODmax (450 nm) [16]: 1.9 OD 450 nm

Binder: Biotin-YGRKKRRQRRRARGDRTIIY [Peptide #1848 (biotin-…)]
- EC50 [10]: < 20 nM
- ODmax (450 nm) [10]: 2.2 OD 450 nm
- EC50 [16]: < 2000 nM
- ODmax (450 nm) [16]: 1.2 OD 450 nm

Binder: Biotin-YGRKKRRQRRRARTDRKVEV [Peptide #1837 (biotin-…)]
- EC50 [10]: < 20 nM
- ODmax (450 nm) [10]: 1.8 OD 450 nm
- ODmax (450 nm) [16]: 0.37 OD 450 nm

Binder: Biotin-YGRKKRRQRRRARSDRTIIA [Peptide #1830 (biotin-…)]
- EC50 [10]: < 20 nM
- ODmax (450 nm) [10]: 1.8 OD 450 nm
- EC50 [16]: < 2000 nM
- ODmax (450 nm) [16]: 1.2 OD 450 nm

Binder: Biotin-YGRKKRRQRRRSRTDRKYQI [Peptide #1839 (biotin-…)]
- EC50 [10]: < 20 nM
- ODmax (450 nm) [10]: 2.5 OD 450 nm
- EC50 [16]: 130 nM
- ODmax (450 nm) [16]: 1.6 OD 450 nm

Binder: Biotin-YGRKKRRQRRRARGRRETWV [Peptide #1854 (biotin-…)]
- ODmax (450 nm) [10]: 2.8 OD 450 nm
- EC50 [16]: < 20 nM
- ODmax (450 nm) [16]: 2.1 OD 450 nm

Binder: Biotin-YGRKKRRQRRRARSDRTIWA [Peptide #1829 (biotin-…)]
- EC50 [10]: 7 nM
- ODmax (450 nm) [10]: 2.9 OD 450 nm
- ODmax (450 nm) [16]: 1.4 OD 450 nm
